Results on one substance are retold here after article PMC13066097.

The target in this test is anti-PcrV scFv conjugated with the mouse IgG1 hinge, CH2 and CH3 domains, scFv-m166-mFc (recombinant protein) (mouse). The test can be described thus: non-reducing SDS-PAGE with immunoblot. On the technique in general: In western blotting, separated proteins are transferred to a membrane and probed.

A word on the stoichiometry N: it is the number of molecules, sites or subunits per partner or assembly. In the case of “anti-PcrV scFv conjugated with the mouse IgG1 hinge, CH2 and CH3 domains, scFv-m166-mFc (recombinant protein) (Fc fusion)”, the stoichiometry N stood at 2.
